Here are results for two molecules from patent US20170283470A1 (OXFORD NANOPORE TECHNOLOGIES, published 2017).

Sequences and labels used below:
B1: CsgE (periplasmic accessory factor CsgE, his-tagged, CsgE-his) (other)
chain: VEVEVPGLLTDHTVSSIGHDFYRAFSDKWESDYTGNLTINERPSARWGSWITITVNQDVIFQTFLFPLKRDFEKTVVFALIQTEEALNRRQINQALLSTGDLAHDEF
notes: Added as purified monomeric CsgE; also called specificity factor CsgE; not shown: his tag (CsgE-his from pNH27)
B2: CsgG (wild-type E. coli CsgG, outer membrane localized, C-terminally StrepII-tagged, membrane-extracted nonameric pore) (other)
chain: CLTAPPKEAARPTLMPRAQSYKDLTHLPAPTGKIFVSVYNIQDETGQFKPYPASNFSTAVPQSATAMLVTALKDSRWFIPLERQGLQNLLNERKIIRAAQENGTVAINNRIPLQSLTAANIMVEGSIIGYESNVKSGGVGARYFGIGADTQYQLDQIAVNLRVVNVSTGEILSSVNTSKTILSYEVQAGVFRFIDYQRLLEGEVGYTSNEPVMLCLMSAIETGVIFLINDGIDRGLWDLQNKAERQNDILVKYRHMSVPPES
modifications: N-terminal Cys of the mature protein triacylated (lipidated), as described in paragraph 145
notes: Produced from pPG1 in E. coli BL21(DE3) and extracted from outer membranes with detergent; It was amphipol A8-35-solubilized for native PAGE and EM, and reconstituted in planar phospholipid bilayers for single-channel recordings; also called CsgG channel; CsgG pore; not shown: C-terminal StrepII tag of construct pPG1

Data set [1] addresses B2. Description: SYPRO orange fluorescence of CsgE and CsgG bands on SDS-PAGE of the complex band cut from native PAGE.
Data set [2] concerns the molecule itself. Put plainly: crystal structure, size-exclusion chromatography, EM and single-channel recordings. For orientation: In gel filtration, larger molecules generally elute earlier.

With B1, the “CsgG/CsgE ratio (stoichiometry of the complex)” value in data set [1] is 0.97.
For B2, in data set [2], the binding result is on record as “binds”.
